Test system: hsRAG1 engineered meganuclease (I-CreI-derived) (artificial (I-CreI backbone, Chlamydomonas reinhardtii?))
Assay: cell_activity
Details: HEK-293, meganuclease-driven targeted integration at RAG1; other lines 7-16%; indirect readout of cleavage

For “human RAG1 locus meganuclease target site”, the activity (% targeted clones) was 44.

Source: patent publication US20130045539
